Experiment [1] has as its target Env of HIV-1 strain Du172.17 (HIV-1). As to the kind of experiment: cell-based or functional assay.
The target in experiment [2] is the viral strains including SC422661.8, TRO0.11, CAP45.2.00G3, CAP210.2.00E8, Du172.17, and AC10.0.29. As to the kind of experiment: cell-based or functional assay.
Experiment [3] addresses Env of HIV-1 strain SC422661.8 (HIV-1). As to the kind of experiment: cell-based or functional assay.
Experiment [4] concerns the target Env of HIV-1 strain AC10.0.29 (HIV-1). As to the kind of experiment: cell-based or functional assay.
Experiment [5] addresses Env of HIV-1 strain TRO.11 (HIV-1). As to the kind of experiment: cell-based or functional assay.
Experiment [6] has as its target Env of HIV-1 strain CAP45.2.00.G3 (HIV-1). As to the kind of experiment: cell-based or functional assay.
In experiment [7] the target is Env of HIV-1 strain CAP210.2.00.E8 (HIV-1). As to the kind of experiment: cell-based or functional assay.
Experiment [8] concerns the target HIV-1 strain CAP45.2.00.G3 envelope (gp120) (HIV-1). The experiment can be described thus: cell-based or functional assay.
For experiment [9], the target named is HIV-1 strain CAP210.2.00.E8 envelope (gp120) (HIV-1). The experiment can be described thus: cell-based or functional assay.
The target of experiment [10] is HIV-1 strain SC422661.8 envelope (gp120) (HIV-1). The experiment can be described thus: cell-based or functional assay.
The target in experiment [11] is HIV-1 strain Du172.17 envelope (gp120) (HIV-1). As to the kind of experiment: cell-based or functional assay.
Experiment [12] deals with HIV-1 strain TRO.11 envelope (gp120) (HIV-1). As to the kind of experiment: cell-based or functional assay.
Experiment [13] concerns the target HIV-1 strain AC10.0.29 envelope (gp120) (HIV-1). As to the kind of experiment: cell-based or functional assay.
For experiment [14], the target named is HIV-1 Env of strain Du172.17 (HIV-1). As to the kind of experiment: cell-based or functional assay.
In experiment [15] the target is HIV-1 Env of strain TRO.11 (HIV-1). The experiment can be described thus: cell-based or functional assay.
Experiment [16] concerns the target HIV-1 Env of strain CAP210.2.00.E8 (HIV-1). As to the kind of experiment: cell-based or functional assay.
For experiment [17], the target named is HIV-1 Env of strain AC10.0.29 (HIV-1). As to the kind of experiment: cell-based or functional assay.
Experiment [18] concerns the target HIV-1 Env of strain SC422661.8 (HIV-1). The experiment can be described thus: cell-based or functional assay.
Experiment [19] concerns the target HIV-1 Env of strain CAP45.2.00.G3 (HIV-1). The experiment can be described thus: cell-based or functional assay.
The target in experiment [20] is CAP244.2.00.D3 gp120 core (HIV-1).
Experiment [21] deals with 93TH057 gp120 core (HIV-1).
Experiment [22] deals with Q259.d2.17 gp120 core (HIV-1).

Positions count from the first letter of the chain named. Numbers in names are those of the source.

B1: 3BNC60 (antibody, V domains shown)
VH: QVHLSQSGAAVTKPGASVRVSCEASGYKISDHFIHWWRQAPGQGLQWVGWINPKTGQPNNPRQFQGRVSLTRQASWDFDTYSFYMDLKAVRSDDTAIYFCARQRSDFWDFDVWGSGTQVTVSS
VL: DIQMTQSPSSLSARVGDTVTITCQANGYLNWYQQRRGKAPKLLIYDGSKLERGVPARFSGRRWGQEYNLTINNLQPEDVATYFCQVYEFIVPGTRLDLKRTVA
On to B1, for which the IC50 was 1.4 µg/mL in experiment [1]; 0.042 µg/mL in experiment [3]; over 50 µg/mL in experiment [4]; 0.018 µg/mL in [5]; 43.2 µg/mL in [6]; 10.6 µg/mL in experiment [7]. The IC50 (averaged across the strains) in experiment [2] worked out at 0.3 µg/mL.

B2: 12A12^Y54W IgG (antibody, name in Kabat numbering, V domains shown)
VH: SQHLVQSGTQVKKPGASVRISCQASGYSFTDYVLHWWRQAPGQGLEWMGWIKPVWGARNYARRFQGRINFDRDIYREIAFMDLSGLRSDDTALYFCARDGSGDDTSWHLDPWGQGTLVIVSA
VL: DIQMTQSPSSLSASVGDRVTITCQAGQGIGSSLQWYQQKPGKAPKLLVHGASNLHRGVPSRFSGSGFHTTFSLTISGLQRDDFATYFCAVLEFFGPGTKVEIKR
As to B2, the neutralization IC50 is 0.2 µg/mL in experiment [8]; over 50 µg/mL in [9]; 0.2 µg/mL in experiment [10]; 0.1 µg/mL in experiment [11]; 0.2 µg/mL in [12]; 0.5 µg/mL in experiment [13].

B3: 3BNC55 T54W IgG (antibody, name in Kabat numbering, V domains shown)
VH: QVQLVQSGTAVKRPGASVRVSCQASGYTFTDYFIYWWRQAPGQGLEWLGWINPLWSQPSYPSRFQGRLTLTRDTFDEMLYMDLRGLRSDDTGIYFCARRHSDYCDFDIWGSGTQIIVSS
VL: DIQMTQSPSSLSASVGDKVTITCQTSAGYLNWYQQRRGRAPKLLMYDGSRLVTGVPSRFSGRRWGTQYNLTIGSLQPEDIATYYCQVYEFFGPGTRLDLKS
Turning to B3, the neutralization IC50 in experiment [8] is over 50 µg/mL; in experiment [9] it was over 50 µg/mL; in experiment [10], 0.6 µg/mL; in [11], over 50 µg/mL; in experiment [12], over 50 µg/mL; in [13], over 50 µg/mL.

B4: NIH45-46 G54I IgG (antibody, name in Kabat numbering, V domains shown)
VH: QVRLSQSGGQMKKPGESMRLSCRASGYEFLNCPINWIRLAPGRRPEWMGWLKPRIGAVNYARKFQGRVTMTRDVYSDTAFLELRSLTSDDTAVYFCTRGKYCTARDYYNWDFEHWGRGAPVTVSS
VL: EIVLTQSPATLSLSPGETAIISCRTSQSGSLAWYQQRPGQAPRLVIYSGSTRAAGIPDRFSGSRWGADYNLSISNLESGDFGVYYCQQYEFFGQGTKVQVDI
As to B4, the neutralization IC50 in experiment [14] is over 50 µg/mL; in experiment [15] it was 10 µg/mL; in experiment [16], over 50 µg/mL; in experiment [17] it was 8.6 µg/mL; in experiment [18], 0.1 µg/mL; in experiment [19], over 50 µg/mL.

B5: NIH45-46 G54L IgG (antibody, name in Kabat numbering, V domains shown)
VH: B4 VH with I55L
VL: B4 VL
With B5, the neutralization IC50 in experiment [14] was over 50 µg/mL; in experiment [15] it was 0.3 µg/mL; in [16], over 50 µg/mL; in experiment [17], 1.7 µg/mL; in [18] it was 0.1 µg/mL; in experiment [19], over 50 µg/mL.

B6: NIH45-46 G54H IgG (antibody, name in Kabat numbering, V domains shown)
VH: B4 VH with I55H
VL: B4 VL
As to B6, the neutralization IC50 in experiment [14] is over 50 µg/mL; in experiment [15], 0.2 µg/mL; in [16] it was over 50 µg/mL; in [17] it was 0.6 µg/mL; in experiment [18] it was 0.09 µg/mL; in [19], over 50 µg/mL.

B7: NIH45-46^G54W Fab (C-terminal 6x-His tagged heavy chain, SPR) (Fab, V domains shown)
VH: B4 VH with I55W
VL: B4 VL
B7: the Kd in experiment [20] came out at 37 nM; in experiment [21], 63 nM; in [22], 48 nM. For the same molecule, the kon in experiment [20] worked out at 22000 M⁻¹ s⁻¹; in experiment [21] it was 26000 M⁻¹ s⁻¹; in experiment [22], 34000 M⁻¹ s⁻¹. Besides, the values for the koff in experiment [21] and in experiment [22] were 0.0016 s⁻¹ and 0.0017 s⁻¹, respectively.

B8: NIH45-46 G54M IgG (antibody, name in Kabat numbering, V domains shown)
VH: B4 VH with I55M
VL: B4 VL
For B8, the neutralization IC50 in experiment [14] was over 50 µg/mL; in experiment [15] it was 0.3 µg/mL; in experiment [16], over 50 µg/mL; in experiment [17] it was 1.5 µg/mL; in experiment [18], 0.06 µg/mL; in [19] it was over 50 µg/mL.

What is called IC50 is the midpoint of a concentration-inhibition curve. Higher therefore signals weaker potency in that assay. The Kd is the equilibrium constant for the complex coming apart. By kon is commonly meant the second-order rate constant of association. Read a low kon as slow association. As usually defined, the koff is the rate constant with which the complex falls apart.

Source of the values: patent US20130209454A1.
